Where a chain is given by its changes, count along the chain named.
Key:
[1] = molecular target: T1, Trm1 M24 (nuclear isoform, WT) (Schizosaccharomyces pombe, UniProt Q9P804 24-548); test: EMSA; replicate 1 of 3; Hill coefficient 7.061; no SAM listed; EMSA: 20 mM Tris-HCl pH 7.6, 100 mM KCl, 0.2 mM EDTA, 1 mM DTT; 32 °C 20 min, ice 2 min; 8% native gel at 4 °C; conditions: protein: recombinant; label: 32P (alpha-ATP, internal); tRNA fold, single strand
T1 sequence: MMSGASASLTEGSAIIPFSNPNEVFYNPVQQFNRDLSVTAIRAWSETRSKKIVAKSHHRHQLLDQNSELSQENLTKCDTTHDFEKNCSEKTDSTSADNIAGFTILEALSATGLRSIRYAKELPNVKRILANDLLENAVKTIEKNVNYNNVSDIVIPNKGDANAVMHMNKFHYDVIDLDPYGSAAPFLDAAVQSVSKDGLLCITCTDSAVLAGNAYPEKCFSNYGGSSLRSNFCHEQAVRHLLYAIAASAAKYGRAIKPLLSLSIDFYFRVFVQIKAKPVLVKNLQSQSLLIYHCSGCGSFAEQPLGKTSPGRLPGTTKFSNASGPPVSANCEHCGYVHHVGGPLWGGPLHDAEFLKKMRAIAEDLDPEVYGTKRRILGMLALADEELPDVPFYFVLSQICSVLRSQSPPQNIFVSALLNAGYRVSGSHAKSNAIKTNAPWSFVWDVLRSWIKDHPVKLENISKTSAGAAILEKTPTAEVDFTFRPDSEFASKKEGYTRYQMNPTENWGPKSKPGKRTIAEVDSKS

[2] = molecular target: T2, Trm1 M24 D201A (catalytic-dead) (Schizosaccharomyces pombe, UniProt Q9P804 24-548, D201A); test: EMSA; affinity comparable to WT; Kd values not in material; no SAM listed; EMSA: 20 mM Tris-HCl pH 7.6, 100 mM KCl, 0.2 mM EDTA, 1 mM DTT; 32 °C 20 min, ice 2 min; 8% native gel at 4 °C; conditions: protein: recombinant; label: 32P (alpha-ATP, internal); tRNA fold, single strand
T2 sequence: T1 sequence with D178A

B1: pre-tRNA SerUGA (structured_RNA)
RNA: GUCACUAUGUCCGAGUGGUUAAGGAGUUAGACUUGAAUCCUGUCUAGUCAUCUAAUGGGCUUUGCCCGCGCAGGUUCAAAUCCUGCUGGUGACGGUAUUU
Question: Which Kd [1] does the source give for B1 here?
Answer: 576 nM

Question: Does B1 bind [2]?
Answer: binds

— article PMC10652106, “Crosstalk between the tRNA methyltransferase Trm1 and RNA chaperone La influences eukaryotic tRNA maturation”
